How the values were obtained:
Design in all cases: species or system human
ActMMP-2 = test: Solid-phase binding of [125I]-actMMP-2 to immobilized collagens/peptides (microwells); settings: ActMMP-2, 2 ng/well; coated wells; 4°C, 2 h; residual radioactivity; mean ± SD, at least five experiments in triplicate
Method: (§1) Human recombinant proMMPs and in vitro activated MMPs were obtained from Invitek and were labeled with the [^125I]-Bolton-Hunter reagent according to the manufacturer's instructions (PerkinElmer, Rodgau, Germany) before the buffer was exchanged for phosphate-buffered saline (PBS) with 0.05% (vol/vol) Tween 20 by gel filtration as described previously. Specific radioactivity for [^125I]-MMPs was 3-9 × 10^4 cpm/ng. Precipitation with 10% (wt/vol) trichloroacetic acid and 200 μg of BSA recovered 96% to 100% of protein-bound radioactivity. Aliquots of labeled MMPs were frozen and stored at -80°C. […]
(§2) The following collagen analogs and control peptides were synthesized as described previously: (GPO)10, H-Gly-Cys-Hyp-(Gly-Pro-Hyp)10-Gly-Cys-Hyp-Gly-NH2; (GPP)10, H-Gly-Cys-Pro-(Gly-Pro-Pro)10-Gly-Cys-Pro-Gly-NH2; and GAP, H-Gly-Ala-Cys-(Gly-Ala-Pro)5-Gly-Phe-Hyp-Gly-Glu-Arg-(Gly-Ala-Pro)5-NH2. […] Graphs were calculated from the primary data using a custom fitting program written by D.A. Slatter (Department of Biochemistry, University of Cambridge, Cambridge, UK [48]) to model different possible transitions. […]
(§3) ProMMP-2 and proMMP-9 or actMMP-2 and actMMP-9 were bound to nitrocellulose and polystyrene-immobilized native collagens, CI chains, CB peptides or structural analogs. […] Membranes were washed again and air-dried, and bound MMP was monitored by autoradiography. […]

ActMMP-9 = test: Solid-phase binding of [125I]-actMMP-9 to immobilized collagens/peptides (microwells); settings: ActMMP-9, 2 ng/well; coated wells; 4°C, 2 h; residual radioactivity; mean ± SD, at least five experiments in triplicate
Method: as §1, §2, §3

ProMMP-9 = test: Solid-phase binding of [125I]-proMMP-9 to immobilized collagens/peptides (microwells); settings: ProMMP-9, 2 ng/well; coated wells; 4°C, 2 h; residual radioactivity; mean ± SD, at least five experiments in triplicate
Method: as §1, §2, §3

ProMMP-2 = test: Solid-phase binding of [125I]-proMMP-2 to immobilized collagens/peptides (microwells); settings: ProMMP-2, 2 ng/well; coated wells; 4°C, 2 h; residual radioactivity; mean ± SD, at least five experiments in triplicate
Method: as §1, §2, §3

B1: CIII: native human collagen type III (protein)
chain: QQEAVEGGCSHLGQSYADRDVWKPEPCQICVCDSGSVLCDDIICDDQELDCPNPEIPFGECCAVCPQPPTAPTRPPNGQGPQGPKGDPGPPGIPGRNGDPGIPGQPGSPGSPGPPGICESCPTGPQNYSPQYDSYDVKSGVAVGGLAGYPGPAGPPGPPGPPGTSGHPGSPGSPGYQGPPGEPGQAGPSGPPGPPGAIGPSGPAGKDGESGRPGRPGERGLPGPPGIKGPAGIPGFPGMKGHRGFDGRNGEKGETGAPGLKGENGLPGENGAPGPMGPRGAPGERGRPGLPGAAGARGNDGARGSDGQPGPPGPPGTAGFPGSPGAKGEVGPAGSPGSNGAPGQRGEPGPQGHAGAQGPPGPPGINGSPGGKGEMGPAGIPGAPGLMGARGPPGPAGANGAPGLRGGAGEPGKNGAKGEPGPRGERGEAGIPGVPGAKGEDGKDGSPGEPGANGLPGAAGERGAPGFRGPAGPNGIPGEKGPAGERGAPGPAGPRGAAGEPGRDGVPGGPGMRGMPGSPGGPGSDGKPGPPGSQGESGRPGPPGPSGPRGQPGVMGFPGPKGNDGAPGKNGERGGPGGPGPQGPPGKNGETGPQGPPGPTGPGGDKGDTGPPGPQGLQGLPGTGGPPGENGKPGEPGPKGDAGAPGAPGGKGDAGAPGERGPPGLAGAPGLRGGAGPPGPEGGKGAAGPPGPPGAAGTPGLQGMPGERGGLGSPGPKGDKGEPGGPGADGVPGKDGPRGPTGPIGPPGPAGQPGDKGEGGAPGLPGIAGPRGSPGERGETGPPGPAGFPGAPGQNGEPGGKGERGAPGEKGEGGPPGVAGPPGGSGPAGPPGPQGVKGERGSPGGPGAAGFPGARGLPGPPGSNGNPGPPGPSGSPGKDGPPGPAGNTGAPGSPGVSGPKGDAGQPGEKGSPGAQGPPGAPGPLGIAGITGARGLAGPPGMPGPRGSPGPQGVKGESGKPGANGLSGERGPPGPQGLPGLAGTAGEPGRDGNPGSDGLPGRDGSPGGKGDRGENGSPGAPGAPGHPGPPGPVGPAGKSGDRGESGPAGPAGAPGPAGSRGAPGPQGPRGDKGETGERGAAGIKGHRGFPGNPGAPGSPGPAGQQGAIGSPGPAGPRGPVGPSGPPGKDGTSGHPGPIGPPGPRGNRGERGSEGSPGHPGQPGPPGPPGAPGPCCGGVGAAAIAGIGGEKAGGFAPYYG
- Binding of [125I]-MMPs (ActMMP-2): 14.3 ± 5.8 % of maximum control
- Binding of [125I]-MMPs (ActMMP-9): 5.0 ± 0.4 % of maximum control
- Binding of [125I]-MMPs (ProMMP-9): 45.0 ± 2.0 % of maximum control
- Binding of [125I]-MMPs (ProMMP-2): 40.0 ± 5.0 % of maximum control

From publication PMC3024946, “Hydroxyproline-containing collagen analogs trigger the release and activation of collagen-sequestered proMMP-2 by competition with prodomain-derived peptide P33-42” (Fibrogenesis & Tissue Repair, 2011)
